Measurements reported in patent publication US7642244 (Hoffmann-La Roche, dated 2010).
Starred links: 1 amine or outer side, 2 acyl side, 3 side chain; linkers in the order of their positions; H or OH if unused. Non-standard residues stand in square brackets, D forms with d. Pqa = 4-oxo-6-(1-piperazinyl)-3(4H)-quinazoline-acetic acid, O=C(Cn1cnc2ccc(N3CCN([*:1])CC3)cc2c1=O)[*:2]; Phe(F5) = N[C@@H](Cc1c(F)c(F)c(F)c(F)c1F)C(=O)O; Phe(3-F) = N[C@@H](Cc1cccc(F)c1)C(=O)O; NMeR = CN[C@@H](CCCNC(=N)N)C(=O)O

B1: H-Ile-Lys-Pqa-Arg-His-Tyr-Leu-Asn-Leu-Val-Thr-Arg-Gln-(NMe)Arg-1-Nal-NH2 (peptide)
peptide: IKXRHYLNLVTRQRX
modifications: Pqa as third residue; (NMe)Arg as penultimate residue; 1-Nal (1-Naphthyl Alanine) as C-terminal residue; C-terminal amide (NH2)
B2: Ac-Ile-Lys-Pqa-Arg-His-Tyr-Leu-Asn-Trp-Val-Thr-Arg-Gln-(NMe)Arg-2,6-F2-Tyr-NH2 (peptide)
peptide: IKXRHYLNWVTRQRY
HELM: PEPTIDE1{[ac].I.K.[O=C(Cn1cnc2ccc(N3CCN([*:1])CC3)cc2c1=O)[*:2]].R.H.Y.L.N.W.V.T.R.Q.[meR].[O=C([C@H](Cc1c(F)cc(O)cc1F)N[*:1])[*:2]].[am]}$$$$V2.0
SMILES: CC[C@H](C)[C@H](NC(C)=O)C(=O)N[C@@H](CCCCN)C(=O)N1CCN(c2ccc3ncn(CC(=O)N[C@@H](CCCNC(=N)N)C(=O)N[C@@H](Cc4c[nH]cn4)C(=O)N[C@@H](Cc4ccc(O)cc4)C(=O)N[C@@H](CC(C)C)C(=O)N[C@@H](CC(N)=O)C(=O)N[C@@H](Cc4c[nH]c5ccccc45)C(=O)N[C@H](C(=O)N[C@H](C(=O)N[C@@H](CCCNC(=N)N)C(=O)N[C@@H](CCC(N)=O)C(=O)N(C)[C@@H](CCCNC(=N)N)C(=O)N[C@@H](Cc4c(F)cc(O)cc4F)C(N)=O)[C@@H](C)O)C(C)C)c(=O)c3c2)CC1
B3: ((PEC30,000)CH2Cl2NHCOCH2CH2CO)Ile-Nle-Pqa-Arg-His-Tyr-Leu-Asn-Trp-Val-Thr-Arg-Gln-(NMe)Arg-Tyr-NH2 (peptide)
peptide: IXXRHYLNWVTRQRY
modifications: PEG30,000-SSA (PEG-CH2CH2NHCOCH2CH2CO-) on the N-terminal Ile; Nle as second residue; Pqa as third residue; (NMe)Arg as penultimate residue; C-terminal amide (NH2)
B4: H-Ile-Lys-Pqa-Arg-His-Tyr-Leu-Asn-Leu-Val-Thr-Arg-Gln-(NMe)Arg-2-Nal-NH2 (peptide)
peptide: IKXRHYLNLVTRQRX
modifications: Pqa as third residue; (NMe)Arg as penultimate residue; 2-Nal (2-Naphthyl Alanine) as C-terminal residue; C-terminal amide (NH2)
B5: ((PEG-30,000)CH(CH3)CH2CO)Ile-Nle-Pqa-Arg-His-Tyr-Leu-Asn-Trp-Val-Thr-Arg-Gln-(NMe)Arg-Tyr-NH2 (peptide)
peptide: IXXRHYLNWVTRQRY
modifications: (PEG-30,000)CH(CH3)CH2CO (PEG30,000 beta-SBA) on the N-terminal Ile; Nle as second residue; Pqa as third residue; (NMe)Arg as penultimate residue; C-terminal amide (NH2)
B6: Pentoyl-Ile-Lys-Pqa-Arg-His-Tyr-Leu-Asn-Trp-Val-Thr-Arg-Gln-(NMe)Arg-Tyr-NH2 (peptide)
peptide: IKXRHYLNWVTRQRY
HELM: PEPTIDE1{[CCCCC(=O)[*:2]].I.K.[O=C(Cn1cnc2ccc(N3CCN([*:1])CC3)cc2c1=O)[*:2]].R.H.Y.L.N.W.V.T.R.Q.[meR].Y.[am]}$$$$V2.0
SMILES: CCCCC(=O)N[C@H](C(=O)N[C@@H](CCCCN)C(=O)N1CCN(c2ccc3ncn(CC(=O)N[C@@H](CCCNC(=N)N)C(=O)N[C@@H](Cc4c[nH]cn4)C(=O)N[C@@H](Cc4ccc(O)cc4)C(=O)N[C@@H](CC(C)C)C(=O)N[C@@H](CC(N)=O)C(=O)N[C@@H](Cc4c[nH]c5ccccc45)C(=O)N[C@H](C(=O)N[C@H](C(=O)N[C@@H](CCCNC(=N)N)C(=O)N[C@@H](CCC(N)=O)C(=O)N(C)[C@@H](CCCNC(=N)N)C(=O)N[C@@H](Cc4ccc(O)cc4)C(N)=O)[C@@H](C)O)C(C)C)c(=O)c3c2)CC1)[C@@H](C)CC
B7: H-Ile-Lys-Pqa-Arg-His-Tyr-Leu-Asn-Leu-Val-Thr-Arg-Gln-(NMe)Arg-Cha-NH2 (peptide)
peptide: IKXRHYLNLVTRQRX
modifications: Pqa as third residue; (NMe)Arg as penultimate residue; Cha (Cyclohexyl Alanine) as C-terminal residue; C-terminal amide (NH2)

Experiments:
Experiment in all cases: cell-based or functional assay
human NPY2 receptor = biological target: T1, human NPY2 receptor (human, UniProt P49146 1-381)
T1 sequence (looked up): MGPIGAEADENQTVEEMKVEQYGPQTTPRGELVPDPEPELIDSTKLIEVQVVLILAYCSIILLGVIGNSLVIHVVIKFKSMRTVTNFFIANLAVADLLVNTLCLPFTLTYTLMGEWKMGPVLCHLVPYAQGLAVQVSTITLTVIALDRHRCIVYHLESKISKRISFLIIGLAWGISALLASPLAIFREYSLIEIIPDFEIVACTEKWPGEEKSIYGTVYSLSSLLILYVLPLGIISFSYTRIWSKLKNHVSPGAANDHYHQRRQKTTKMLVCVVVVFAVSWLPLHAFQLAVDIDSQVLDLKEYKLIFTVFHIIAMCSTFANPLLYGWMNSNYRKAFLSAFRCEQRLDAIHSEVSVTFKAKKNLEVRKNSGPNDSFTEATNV

Y5R = biological target: T2, Y5R
T2 sequence (Q15761 whole entry, species assumed, looked up): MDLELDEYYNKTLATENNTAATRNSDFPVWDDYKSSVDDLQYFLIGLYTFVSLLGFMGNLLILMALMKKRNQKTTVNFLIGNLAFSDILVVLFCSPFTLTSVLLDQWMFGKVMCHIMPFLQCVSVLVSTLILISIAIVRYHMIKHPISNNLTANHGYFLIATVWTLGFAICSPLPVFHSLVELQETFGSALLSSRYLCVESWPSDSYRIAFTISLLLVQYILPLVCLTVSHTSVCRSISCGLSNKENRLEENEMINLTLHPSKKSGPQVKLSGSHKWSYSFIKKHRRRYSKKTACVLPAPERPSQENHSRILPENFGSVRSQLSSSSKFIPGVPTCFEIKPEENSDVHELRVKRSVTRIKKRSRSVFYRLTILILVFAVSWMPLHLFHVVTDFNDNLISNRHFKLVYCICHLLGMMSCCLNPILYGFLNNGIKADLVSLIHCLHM

Y1R = biological target: Y1R
Y1R, sequence (P25929 whole entry): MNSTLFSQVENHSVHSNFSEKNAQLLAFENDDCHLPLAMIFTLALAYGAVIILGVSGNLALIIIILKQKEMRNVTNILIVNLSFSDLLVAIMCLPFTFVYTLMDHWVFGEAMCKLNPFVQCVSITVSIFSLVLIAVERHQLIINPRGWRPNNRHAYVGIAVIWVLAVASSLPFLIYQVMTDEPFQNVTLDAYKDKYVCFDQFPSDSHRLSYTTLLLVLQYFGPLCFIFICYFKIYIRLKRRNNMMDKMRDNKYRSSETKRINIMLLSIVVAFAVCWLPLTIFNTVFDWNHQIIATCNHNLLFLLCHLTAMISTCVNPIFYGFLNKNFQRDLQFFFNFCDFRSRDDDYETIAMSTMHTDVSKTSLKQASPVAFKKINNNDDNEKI

Y4R = biological target: Y4R

Row | Binder | Y2R EC50 (nM) FLIPR (human NPY2 receptor) [nM] | Y2R EC50 (nM) cAMP (human NPY2 receptor) [nM] | Y5R EC50 (nM) FLIPR (Y5R) [nM] | Y1R EC50 (nM) FLIPR (Y1R) [nM] | Y4R EC50 (nM) FLIPR (Y4R) [nM]
1 | B1 | 2.73 | 1.14 |  |  | 
2 | H-IK[Pqa]RHYLNWVTRQ[NMeR]Y-NH2 [H-Ile-Lys-Pqa-Arg-His-Tyr-Leu-Asn-Trp-Val-Thr-Arg-Gln-(NMe)Arg-Tyr-NH2] | 0.44 | 0.25 | > 5000 | 298 | > 5000
3 | H-IK[Pqa]RHYLNLVTRQ[NMeR][Phe(F5)]-NH2 [H-Ile-Lys-Pqa-Arg-His-Tyr-Leu-Asn-Leu-Val-Thr-Arg-Gln-(NMe)Arg-2,3,4,5,6 Pentafluoro-Phe-NH2] | 11.9 | 2.5 |  |  | 
4 | B2 | 1.44 | 0.07 | 5810 | > 5000 | > 5000
5 | H-IK[Pqa]RHYLNLVTRQ[NMeR][Phe(3-F)]-NH2 [H-Ile-Lys-Pqa-Arg-His-Tyr-Leu-Asn-Leu-Val-Thr-Arg-Gln-(NMe)Arg-3Fluoro-Phe-NH2] | 0.635 | 0.75 |  |  | 
6 | B3 |  |  | > 5000 | > 5000 | > 5000
7 | B4 | 4.11 | 2.4 |  |  | 
8 | B5 |  |  | > 5000 | > 5000 | > 5000
9 | B6 | 0.873 | 0.51 | > 5000 | > 5000 | > 5000
10 | B7 | 0.498 | 0.5 | 352 | > 5000 | 
